Source: patent US7988958B2, “Enterococcus and Streptococcus strains and bacteriocins” (The United States of America as represented by the …, priority 2005, dated 2011)

How the values were obtained:
E. coli O157:H7 G-3 = experiment: MIC by spot test; type: cell-based
[1] = test system: Staphylococcus epidermidis; experiment: MIC by spot test; type: cell-based
E. coli HB101 = experiment: MIC by spot test; type: cell-based
S. choleraesuis 370 = experiment: MIC by spot test; type: cell-based
C. jejuni NCTC 11168 [2] = experiment: Thermostability and effect of pH on bacteriocin activity (spot test); type: physicochemical, Campylobacter jejuni; settings: for Antimicrobial activity after treatment: heating to about 90° C.
C. jejuni NCTC 11168 [3] = experiment: SDS-PAGE gel overlaid with test strain; type: cell-based, Campylobacter jejuni; settings: for Inhibiting Activity measured by SDS-PAGE: CAP, active band, C. jejuni NCTC 11168; for Inhibiting Activity SDS-PAGE: purified bacteriocin, C. jejuni
Protocol: (§1) CAPs and bacteriocins were electrophoresed in about 15% […] gel weight, about 1% SDS (9×12 cm) in Tri-glycine buffer. After electrophoresis at about 100 mA for approximately 4 hours, gels were fixed with a solution containing approximately 15% ethanol and approximately 1% acetic acid. The gels were then washed with distilled water for approximately 4 hours. To determine molecular weights of protein fractions, the gel was stained with a solution containing approximately 0.21% Coomassi Blue G-250, about 40% ethanol, and about 7% acetic acid. Washed gels were tested against three target bacteria, C. jejuni NCTC 11168, E. coli 0157:H7 904, and S. enteritidis 204 by the method of Bhunia et al. (Journal of Industrial Microbiology, Volume 2, 319-322, 1987; herein incorporated by reference). The gels were placed in Petri dishes, covered with 5% blood-semi-solid Campylobacter agar (about 0.75%) or semi-solid MPA, and seeded with cells of the test strains. Plates containing C. jejuni were incubated at about 42° C. for approximately 48 hours under microaerobic conditions, E. coli 0157:H7 and S. enteriditidis at about 37° C. for approximately 24 hours. Assessment was based on visualization of zones of the inhibited growth of the test strains in the presence of bacteriocins.

Proteus mirabilis = experiment: MIC by spot test; type: cell-based
E. coli C600 = experiment: MIC by spot test; type: cell-based
Pseudomonas aeruginosa = experiment: MIC of purified bacteriocins and antibiotic by Spot Test; type: cell-based; settings: P. aeruginosa; 24 hours at 37° C., aerobic
Protocol: (§2) The minimal inhibiting concentrations (MICs) of bacteriocins 760 and 50-52 and Methicillin were determined by Spot Test. Various concentrations of purified bacteriocins (μg/ml) in a volume of 10 μl was added to cultures of Staphylococcus aureus, Staphylococcus epidermidis, Pseudomonas aeruginosa, and Helicobacter pylori. The cultures were incubated for about 24 hours at about 37° C. under aerobic conditions for all but Helicobacter pylori which was incubated under microaerobic conditions.

Staphylococcus aureus [4] = experiment: as above; type: cell-based; settings: S. aureus; 24 hours at 37° C., aerobic
Protocol: as §2

Helicobacter pylori = experiment: as above; type: cell-based; settings: H. pylori; 24 hours at 37° C., microaerobic
Protocol: as §2

[5] = test system: Staphylococcus epidermidis; experiment: as above; type: cell-based; settings: S. epidermidis; 24 hours at 37° C., aerobic
Protocol: as §2

S. enteritidis 4 = experiment: MIC by spot test; type: cell-based
C. jejuni NCTC 11168 [6] = experiment: Spot test; type: cell-based, Campylobacter jejuni; settings: for Inhibiting activity in Spot Test: crude antimicrobial preparation (CAP), C. jejuni NCTC 11168; for Inhibiting Activity, Spot Test: purified bacteriocin, C. jejuni
C. jejuni L4 = experiment: MIC by spot test; type: cell-based
S. enteritidis 204 [7] = experiment: IEF gel tested for growth inhibition of test strain; type: cell-based; settings: for Inhibiting Activity measured by IEF: CAP, active band; for Inhibiting Activity IEF: purified bacteriocin
Protocol: as §1
(§3) Specimens of bacteriocins were placed on IEF gels (pH approximately 4.4-10.0) (Novex, San Diego, Calif.). The gels were run at about 100V for about 1 hour, 200V for about 2 hour, and 500V for about 30 minutes in XCM II™ Mini-Cell (Novex). Gels were washed with distilled water for about 4 hours without fixation followed by staining with Coomassie Blue G-250 to determine isoelectric points (pI) of the bacteriocins and their ability to inhibit the growth of the test strains as presented in FIGS. 1 and 2 and in Table 2.

E. coli O157:H7 904 [8] = experiment: as above; type: cell-based; settings: for Inhibiting Activity measured by IEF: CAP, active band, E. coli O157:H7 904; for Inhibiting Activity IEF: purified bacteriocin, E. coli O157:H7
Protocol: as §1, §3

Y. enterocolitica 03 = experiment: MIC by spot test; type: cell-based
S. gallinarum pullorum = experiment: MIC by spot test; type: cell-based
Y. enterolitica 04 = experiment: MIC by spot test; type: cell-based, Y. enterocolitica
E. coli O157:H7 Y-63 = experiment: MIC by spot test; type: cell-based
Campylobacter jejuni = experiment: Antagonistic activity of products purified by Methods A and B; type: cell-based; set-up: Specific Activity UE/ml: unit not given here
C. jejuni NCTC 11168 [9] = experiment: Influence of enzymes on bacteriocin activity (spot test); type: physicochemical, Campylobacter jejuni
Y. pseudotuberculosis = type: cell-based
S. enteritidis 204 [10] = experiment: SDS-PAGE gel overlaid with test strain; type: cell-based; settings: for Inhibiting Activity measured by SDS-PAGE: CAP, active band; for Inhibiting Activity SDS-PAGE: purified bacteriocin
Protocol: as §1

E. coli O157:H7 904 [11] = experiment: SDS-PAGE gel overlaid with test strain; type: cell-based; settings: for Inhibiting Activity measured by SDS-PAGE: CAP, active band, E. coli O157:H7 904; for Inhibiting Activity SDS-PAGE: purified bacteriocin, E. coli O157:H7
Protocol: as §1

S. enteritidis 204 [12] = experiment: Spot test; type: cell-based; settings: for Inhibiting activity in Spot Test: crude antimicrobial preparation (CAP); for Inhibiting Activity, Spot Test: purified bacteriocin
Staphylococcus aureus [13] = experiment: MIC by spot test; type: cell-based
E. coli O157:H7 904 [14] = experiment: Spot test; type: cell-based; settings: for Inhibiting activity in Spot Test: crude antimicrobial preparation (CAP), E. coli O157:H7 904; for Inhibiting Activity, Spot Test: purified bacteriocin, E. coli O157:H7

Bacteriocin 50-52: bacteriocin produced by Enterococcus durans/faecium/hirae NRRL B-30746 (strain 50-52); amino acid sequence SEQ ID NO 1 (TTKNYGNGVCNSVNWCQCGNVWASCNLATGCAAWLCKLA; listed as Enterococcus faecium)
MICs (E. coli O157:H7 G-3): 0.1 µg/mL
MICs ([1]; Staphylococcus epidermis): 3.2 µg/mL
MICs (E. coli HB101): 0.1 µg/mL
MICs (S. choleraesuis 370): 0.1 µg/mL
Stability at different values of pH (C. jejuni NCTC 11168 [2]; about pH 10): became inactive
Antimicrobial activity after treatment (C. jejuni NCTC 11168 [2]): retained it
Stability at different values of pH (C. jejuni NCTC 11168 [2]; pH about 3.0 to about 9.0): stable
Inhibiting Activity measured by SDS-PAGE (C. jejuni NCTC 11168 [3]): M.W. 3.9 kDa
Inhibiting Activity SDS-PAGE (C. jejuni NCTC 11168 [3]): +Band 1
MICs (Proteus mirabilis): 1.6 µg/mL
MICs (E. coli C600): 0.1 µg/mL
MIC of purified Bacteriocins and Antibiotic (Pseudomonas aeruginosa): 0.8 µg/mL
MIC of purified Bacteriocins and Antibiotic (Staphylococcus aureus [4]): 0.1 µg/mL
MIC of purified Bacteriocins and Antibiotic (Helicobacter pylori): 0.8 µg/mL
MIC of purified Bacteriocins and Antibiotic [5]: 0.4 µg/mL
MICs (S. enteritidis 4): 0.1 µg/mL
Inhibiting activity in Spot Test (C. jejuni NCTC 11168 [6]): 12,800 AU/ml
Inhibiting Activity, Spot Test (C. jejuni NCTC 11168 [6]): 12,800 AU/ml
MICs (C. jejuni L4; C. jejuni L-4): 0.2 µg/mL
Inhibiting Activity measured by IEF (S. enteritidis 204 [7]): band 1
Inhibiting Activity IEF (S. enteritidis 204 [7]): +Band 1
Inhibiting Activity measured by IEF (E. coli O157:H7 904 [8]): band 1
Inhibiting Activity IEF (E. coli O157:H7 904 [8]): +Band 1
MICs (Y. enterocolitica 03; Y. enterolitica 03): 0.1 µg/mL
MICs (S. gallinarum pullorum): 0.1 µg/mL
MICs (Y. enterolitica 04): 0.1 µg/mL
MICs (E. coli O157:H7 Y-63): 0.1 µg/mL
Activity UE/ml (Campylobacter jejuni; isolated by Method A): 6,400 UE/ml
Specific Activity UE/ml (Campylobacter jejuni; isolated by Method A): 85,333
Activity UE/ml (Campylobacter jejuni; isolated by Method B): 12,800 UE/ml
Specific Activity UE/ml (Campylobacter jejuni; isolated by Method B): 320,000
Antimicrobial activity after treatment (C. jejuni NCTC 11168 [9]; treated with beta-chymotrypsin): lost their antimicrobial activity
Antimicrobial activity after treatment (C. jejuni NCTC 11168 [9]; treated with lipase): retained it
Antimicrobial activity after treatment (C. jejuni NCTC 11168 [9]; treated with lysozyme): retained it
Antimicrobial activity after treatment (C. jejuni NCTC 11168 [9]; treated with papain): lost their antimicrobial activity
Antimicrobial activity after treatment (C. jejuni NCTC 11168 [9]; treated with proteinase K): lost their antimicrobial activity
MICs (Y. pseudotuberculosis; Y. pseudotuberculosis): 0.4 µg/mL
Inhibiting Activity measured by SDS-PAGE (S. enteritidis 204 [10]): M.W. 3.9 kDa
Inhibiting Activity SDS-PAGE (S. enteritidis 204 [10]): +Band 1
Inhibiting Activity measured by SDS-PAGE (E. coli O157:H7 904 [11]): M.W. 3.9 kDa
Inhibiting Activity SDS-PAGE (E. coli O157:H7 904 [11]): +Band 1
Inhibiting activity in Spot Test (S. enteritidis 204 [12]): 12,800 AU/ml
Inhibiting Activity, Spot Test (S. enteritidis 204 [12]): 12,800 AU/ml
MICs (Staphylococcus aureus [13]): 0.4 µg/mL
Inhibiting activity in Spot Test (E. coli O157:H7 904 [14]): 3,200 AU/ml
Inhibiting Activity, Spot Test (E. coli O157:H7 904 [14]): 6,400 AU/ml

B1: Bacteriocin 760: bacteriocin produced by Enterococcus durans/faecium/hirae NRRL B-30745 (strain 760); amino acid sequence SEQ ID NO 2 (protein, listed as Streptococcus cricetus)
chain: NRWYCNSAAGGVGGAAVCGLAGYVGEAKENIAGEVRKGWGMAGGFTHNKACKSFPGSGWASG
MIC (E. coli O157:H7 G-3): 1600 µg/mL
MIC ([1]; Staphylococcus epidermidis): 1600 µg/mL
MIC (E. coli HB101): 100 µg/mL
MIC (S. choleraesuis 370): 400 µg/mL
Stability at different values of pH (C. jejuni NCTC 11168 [2]; about pH 10): became inactive
Antimicrobial activity after treatment (C. jejuni NCTC 11168 [2]): retained it
Stability at different values of pH (C. jejuni NCTC 11168 [2]; pH about 3.0 to about 9.0): stable
Inhibiting Activity measured by SDS-PAGE (C. jejuni NCTC 11168 [3]): M.W. 5.5 kDa
Inhibiting Activity SDS-PAGE (C. jejuni NCTC 11168 [3]): +Band 1
MIC (Proteus mirabilis): 3200 µg/mL
MIC (E. coli C600): 100 µg/mL
MIC of purified Bacteriocins and Antibiotic (Pseudomonas aeruginosa): 0.4 µg/mL
MIC of purified Bacteriocins and Antibiotic (Staphylococcus aureus [4]): 1.6 µg/mL
MIC of purified Bacteriocins and Antibiotic (Helicobacter pylori): 0.2 µg/mL
MIC of purified Bacteriocins and Antibiotic [5]: 1.6 µg/mL
MIC (S. enteritidis 4): 400 µg/mL
Inhibiting activity in Spot Test (C. jejuni NCTC 11168 [6]): 51,200 AU/ml
Inhibiting Activity, Spot Test (C. jejuni NCTC 11168 [6]): 51,200 AU/ml
MIC (C. jejuni L4; C. jejuni L4): 100 µg/mL
Inhibiting Activity measured by IEF (S. enteritidis 204 [7]): band 1
Inhibiting Activity IEF (S. enteritidis 204 [7]): +Band 1
Inhibiting Activity measured by IEF (E. coli O157:H7 904 [8]): band 1
Inhibiting Activity IEF (E. coli O157:H7 904 [8]): +Band 1
MIC (Y. enterocolitica 03; Y. enterocolitica 03): 100 µg/mL
MIC (S. gallinarum pullorum): 400 µg/mL
MIC (Y. enterolitica 04): 100 µg/mL
MIC (E. coli O157:H7 Y-63): 1600 µg/mL
Activity UE/ml (Campylobacter jejuni; isolated by Method A): 12,800 UE/ml
Specific Activity UE/ml (Campylobacter jejuni; isolated by Method A): 71,111
Activity UE/ml (Campylobacter jejuni; isolated by Method B): 51,200 UE/ml
Specific Activity UE/ml (Campylobacter jejuni; isolated by Method B): 284,444
Antimicrobial activity after treatment (C. jejuni NCTC 11168 [9]; treated with beta-chymotrypsin): lost their antimicrobial activity
Antimicrobial activity after treatment (C. jejuni NCTC 11168 [9]; treated with lipase): retained it
Antimicrobial activity after treatment (C. jejuni NCTC 11168 [9]; treated with lysozyme): retained it
Antimicrobial activity after treatment (C. jejuni NCTC 11168 [9]; treated with papain): lost their antimicrobial activity
Antimicrobial activity after treatment (C. jejuni NCTC 11168 [9]; treated with proteinase K): lost their antimicrobial activity
MIC (Y. pseudotuberculosis): 3200 µg/mL
Inhibiting Activity measured by SDS-PAGE (S. enteritidis 204 [10]): M.W. 5.5 kDa
Inhibiting Activity SDS-PAGE (S. enteritidis 204 [10]): +Band 1
Inhibiting Activity measured by SDS-PAGE (E. coli O157:H7 904 [11]): M.W. 5.5 kDa
Inhibiting Activity SDS-PAGE (E. coli O157:H7 904 [11]): +Band 1
Inhibiting activity in Spot Test (S. enteritidis 204 [12]): 12,800 AU/ml
Inhibiting Activity, Spot Test (S. enteritidis 204 [12]): 12,800 AU/ml
MIC (Staphylococcus aureus [13]): 1600 µg/mL
Inhibiting activity in Spot Test (E. coli O157:H7 904 [14]): 12,800 AU/ml
Inhibiting Activity, Spot Test (E. coli O157:H7 904 [14]): 12,800 AU/ml
